Test results: US20150218251A1 (NATIONAL CHENG KUNG UNIVERSITY, published 2015)
Where two headings read alike, the source gives them in different places.

How the values were obtained:
[1] = target: T1, integrin αIIbβ3 (UniProt P08514 32-1039; P05106 27-788); experiment: cell adhesion inhibition assay (Table 4)
T1 construct: whole, on cells
Description: (§1) Briefly, 96-well Immulon-2 microtiter plates (Costar, Corning, N.Y.) were coated with 100 μl of phosphate-buffered saline (PBS: 10 mM phosphate buffer, 0.15M NaCl, pH 7.4) containing substrates at a concentration of 50-500 nM, and incubated overnight at 4° C. […] Non-specific protein binding sites were blocked by incubating each well with 200 μl of heat-denatured 1% bovine serum albumin (BSA, Calbiochem) at room temperature (25° C.) for 1.5 hr. Afterwards, the blocking heat-denatured BSA was discarded and each well was washed twice with 200 μl of PBS.
(§2) Chinese hamster ovary (CHO) cells expressing αvβ3 (CHO-αvβ3) and α5β1 (CHO-α5β1) integrins were maintained in 100 μl of Dulbecco's Modified Eagle's Medium (DMEM) medium. Both CHO-αvβ3 and CHO-α5β1 were kind gifts of Dr. Y. Takada (Scripps Research Institute) established by stable transfection with a neomycin-resistant gene. CHO cells growing in log phase were detached by trypsinization and used in the assay at 3×10⁵ cells/ml. FNIII 9-10, FNIII 10 and variants thereof were added to the cultured cells at the concentrations of 0.001-500 μM and incubated at 37° C. in 5% CO₂ for 15 minutes. The treated cells were then added into the coated plate and incubated at 37° C. in 5% CO₂ for 1 hour. The incubation solution was then discarded and non-adhered cells were removed by washing twice with 200 μl PBS.
(§3) Bound cells were quantified by crystal violet staining. Briefly, the well was fixed with 100 μl of 10% formalin for 10 minutes and dried. Fifty microliters of 0.05% crystal violet were then added into the well at room temperature for 20 minutes. Each well was washed with 200 μl of distilled water four times and dried. Colorization was carried out by adding 150 μl of colorizing solution (50% alcohol and 0.1% acetic acid). The resulting absorbance was read at 600 nm and the readings were correlated with the number of adhering cells.

[2] = target: T1, integrin αIIbβ3; experiment: cell-based or functional assay
[3] = target: T2, integrin α5β1 (UniProt P08648 42-1049; P05556 21-798); experiment: cell-based or functional assay
[4] = target: T3, integrin αvβ3 (UniProt P06756 31-1048; P05106 27-788); experiment: cell-based or functional assay
[5] = target: T3, integrin αvβ3; experiment: cell adhesion inhibition assay (Table 4)
Description: as §1, §2, §3

[6] = target: T1, integrin αIIbβ3; experiment: cell adhesion inhibition assay (Table 5)
Description: as §1
(§4) Chinese hamster ovary (CHO) cells expressing αvβ3 (CHO-αvβ3) and α5β1 (CHO-α5β1) integrins were maintained in 100 μl of Dulbecco's Modified Eagle's Medium (DMEM) medium. Both CHO-αvβ3 and CHO-α5β1 were kind gifts of Dr. Y. Takada (Scripps Research Institute) established by stable transfection with a neomycin-resistant gene. CHO cells growing in log phase were detached by trypsinization and used in the assay at 3×10⁵ cells/ml. FNIII 9-10, FNIII 10 and variants thereof were added to the cultured cells at the concentrations of 0.001-500 μM and incubated at 37° C. in 5% CO₂ for 15 minutes. […]
(§5) Bound cells were quantified by crystal violet staining. […] The resulting absorbance was read at 600 nm and the readings were correlated with the number of adhering cells.

[7] = target: T3, integrin αvβ3; experiment: cell adhesion inhibition assay (Table 5)
Description: as §1, §4, §5

[8] = target: T1, integrin αIIbβ3; experiment: cell-based or functional assay; remark: listed apart in the source
[9] = target: T2, integrin α5β1; experiment: cell-based or functional assay; remark: listed apart in the source
[10] = target: T3, integrin αvβ3; experiment: cell-based or functional assay; remark: listed apart in the source

T1 sequence (P08514 32-1039, chain 1 of 2): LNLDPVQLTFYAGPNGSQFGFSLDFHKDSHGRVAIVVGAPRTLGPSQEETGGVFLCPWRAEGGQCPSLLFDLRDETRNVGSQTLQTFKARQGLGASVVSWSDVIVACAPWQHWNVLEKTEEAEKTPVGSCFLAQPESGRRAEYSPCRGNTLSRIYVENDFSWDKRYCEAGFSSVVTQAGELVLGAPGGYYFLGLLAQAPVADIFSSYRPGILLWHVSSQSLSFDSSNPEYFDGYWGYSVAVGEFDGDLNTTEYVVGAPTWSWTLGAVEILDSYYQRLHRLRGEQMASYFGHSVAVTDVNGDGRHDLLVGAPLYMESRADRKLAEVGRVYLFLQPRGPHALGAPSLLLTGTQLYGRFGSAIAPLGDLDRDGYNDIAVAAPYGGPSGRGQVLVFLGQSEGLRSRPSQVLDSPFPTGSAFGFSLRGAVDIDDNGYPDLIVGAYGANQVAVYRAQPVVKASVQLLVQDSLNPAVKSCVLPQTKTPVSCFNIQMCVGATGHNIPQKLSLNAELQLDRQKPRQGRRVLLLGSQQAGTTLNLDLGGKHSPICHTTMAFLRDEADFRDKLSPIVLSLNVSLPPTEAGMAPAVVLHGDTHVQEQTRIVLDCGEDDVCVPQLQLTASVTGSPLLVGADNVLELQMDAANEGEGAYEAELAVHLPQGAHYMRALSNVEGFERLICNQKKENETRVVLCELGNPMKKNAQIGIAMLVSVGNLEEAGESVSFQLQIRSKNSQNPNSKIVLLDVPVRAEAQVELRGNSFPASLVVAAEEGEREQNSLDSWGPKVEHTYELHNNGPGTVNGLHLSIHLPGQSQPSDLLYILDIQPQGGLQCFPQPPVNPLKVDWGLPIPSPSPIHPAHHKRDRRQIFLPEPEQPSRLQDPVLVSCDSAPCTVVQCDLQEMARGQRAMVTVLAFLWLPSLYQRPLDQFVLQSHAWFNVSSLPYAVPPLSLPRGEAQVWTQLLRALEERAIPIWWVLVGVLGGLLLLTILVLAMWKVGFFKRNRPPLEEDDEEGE
T1 sequence (P05106 27-788, chain 2 of 2): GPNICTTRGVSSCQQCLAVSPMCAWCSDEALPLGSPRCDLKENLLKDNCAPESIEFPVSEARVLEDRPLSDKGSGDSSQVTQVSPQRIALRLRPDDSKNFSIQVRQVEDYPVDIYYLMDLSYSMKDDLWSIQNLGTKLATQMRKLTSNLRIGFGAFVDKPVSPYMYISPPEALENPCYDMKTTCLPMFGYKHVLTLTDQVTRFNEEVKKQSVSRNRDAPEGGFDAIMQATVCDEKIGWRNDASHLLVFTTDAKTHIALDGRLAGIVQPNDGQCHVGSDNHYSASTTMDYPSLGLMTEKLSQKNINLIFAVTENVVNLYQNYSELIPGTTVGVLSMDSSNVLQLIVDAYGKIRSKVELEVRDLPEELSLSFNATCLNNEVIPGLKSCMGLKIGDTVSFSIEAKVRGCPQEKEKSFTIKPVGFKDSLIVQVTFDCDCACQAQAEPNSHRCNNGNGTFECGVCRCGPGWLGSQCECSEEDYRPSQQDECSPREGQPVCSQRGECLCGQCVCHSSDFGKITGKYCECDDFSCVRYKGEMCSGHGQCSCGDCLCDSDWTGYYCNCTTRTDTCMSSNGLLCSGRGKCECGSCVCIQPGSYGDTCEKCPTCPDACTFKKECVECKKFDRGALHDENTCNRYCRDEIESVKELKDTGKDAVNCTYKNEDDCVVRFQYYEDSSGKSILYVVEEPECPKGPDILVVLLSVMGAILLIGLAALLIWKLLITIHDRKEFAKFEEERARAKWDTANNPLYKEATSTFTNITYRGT
T3 sequence (P06756 31-1048, chain 1 of 2): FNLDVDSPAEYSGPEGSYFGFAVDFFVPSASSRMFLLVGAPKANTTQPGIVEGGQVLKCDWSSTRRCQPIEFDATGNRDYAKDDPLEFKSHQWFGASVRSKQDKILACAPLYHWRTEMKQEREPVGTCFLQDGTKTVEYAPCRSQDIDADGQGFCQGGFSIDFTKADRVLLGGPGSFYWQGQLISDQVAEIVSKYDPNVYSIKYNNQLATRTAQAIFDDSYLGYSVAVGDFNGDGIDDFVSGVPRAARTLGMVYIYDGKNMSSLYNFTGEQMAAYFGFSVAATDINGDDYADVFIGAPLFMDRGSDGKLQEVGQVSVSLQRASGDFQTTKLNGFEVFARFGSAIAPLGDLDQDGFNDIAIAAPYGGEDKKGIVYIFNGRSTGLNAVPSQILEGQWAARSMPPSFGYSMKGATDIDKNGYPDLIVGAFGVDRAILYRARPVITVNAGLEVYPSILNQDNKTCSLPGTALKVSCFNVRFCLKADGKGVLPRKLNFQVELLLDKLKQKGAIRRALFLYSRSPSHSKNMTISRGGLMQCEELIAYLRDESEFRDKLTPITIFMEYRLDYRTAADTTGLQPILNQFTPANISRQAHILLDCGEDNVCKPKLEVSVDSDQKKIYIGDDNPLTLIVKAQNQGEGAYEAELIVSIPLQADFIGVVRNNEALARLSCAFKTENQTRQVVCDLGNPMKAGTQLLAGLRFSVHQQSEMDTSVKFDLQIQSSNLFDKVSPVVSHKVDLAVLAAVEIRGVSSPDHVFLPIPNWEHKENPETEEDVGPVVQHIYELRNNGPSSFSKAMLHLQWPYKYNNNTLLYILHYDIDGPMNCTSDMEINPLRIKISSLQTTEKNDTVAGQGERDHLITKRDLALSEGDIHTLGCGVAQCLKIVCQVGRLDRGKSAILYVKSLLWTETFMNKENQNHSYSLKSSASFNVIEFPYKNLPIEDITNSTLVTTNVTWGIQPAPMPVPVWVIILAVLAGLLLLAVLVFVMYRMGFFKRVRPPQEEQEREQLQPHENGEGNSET
T3 sequence (P05106 27-788, chain 2 of 2): as the sequence (P05106 27-788, chain 2 of 2) above
T2 sequence (P08648 42-1049, chain 1 of 2): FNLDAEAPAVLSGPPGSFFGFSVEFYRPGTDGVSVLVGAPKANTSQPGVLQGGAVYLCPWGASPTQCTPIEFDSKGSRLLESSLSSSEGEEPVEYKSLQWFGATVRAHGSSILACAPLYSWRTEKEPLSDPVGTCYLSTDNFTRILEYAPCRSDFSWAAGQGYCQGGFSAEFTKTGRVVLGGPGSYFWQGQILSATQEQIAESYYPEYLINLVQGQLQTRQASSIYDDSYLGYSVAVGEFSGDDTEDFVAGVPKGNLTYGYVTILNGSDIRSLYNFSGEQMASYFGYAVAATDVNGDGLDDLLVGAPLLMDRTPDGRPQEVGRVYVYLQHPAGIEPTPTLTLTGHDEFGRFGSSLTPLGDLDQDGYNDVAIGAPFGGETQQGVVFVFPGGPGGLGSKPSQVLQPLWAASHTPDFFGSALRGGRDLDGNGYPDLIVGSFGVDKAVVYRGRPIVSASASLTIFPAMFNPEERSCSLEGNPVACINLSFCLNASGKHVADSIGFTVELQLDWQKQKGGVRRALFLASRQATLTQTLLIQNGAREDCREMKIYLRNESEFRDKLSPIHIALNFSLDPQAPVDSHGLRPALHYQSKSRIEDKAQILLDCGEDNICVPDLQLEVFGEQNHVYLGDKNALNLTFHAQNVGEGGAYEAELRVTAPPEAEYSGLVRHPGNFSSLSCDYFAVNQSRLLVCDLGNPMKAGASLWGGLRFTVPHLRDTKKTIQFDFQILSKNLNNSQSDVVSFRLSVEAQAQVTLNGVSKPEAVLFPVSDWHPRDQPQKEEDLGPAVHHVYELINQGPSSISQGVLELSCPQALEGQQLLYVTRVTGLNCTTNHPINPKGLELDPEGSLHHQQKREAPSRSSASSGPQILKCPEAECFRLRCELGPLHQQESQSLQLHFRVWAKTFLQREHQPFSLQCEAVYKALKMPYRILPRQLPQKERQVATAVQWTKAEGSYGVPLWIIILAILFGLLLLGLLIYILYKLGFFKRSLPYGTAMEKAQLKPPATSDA
T2 sequence (P05556 21-798, chain 2 of 2): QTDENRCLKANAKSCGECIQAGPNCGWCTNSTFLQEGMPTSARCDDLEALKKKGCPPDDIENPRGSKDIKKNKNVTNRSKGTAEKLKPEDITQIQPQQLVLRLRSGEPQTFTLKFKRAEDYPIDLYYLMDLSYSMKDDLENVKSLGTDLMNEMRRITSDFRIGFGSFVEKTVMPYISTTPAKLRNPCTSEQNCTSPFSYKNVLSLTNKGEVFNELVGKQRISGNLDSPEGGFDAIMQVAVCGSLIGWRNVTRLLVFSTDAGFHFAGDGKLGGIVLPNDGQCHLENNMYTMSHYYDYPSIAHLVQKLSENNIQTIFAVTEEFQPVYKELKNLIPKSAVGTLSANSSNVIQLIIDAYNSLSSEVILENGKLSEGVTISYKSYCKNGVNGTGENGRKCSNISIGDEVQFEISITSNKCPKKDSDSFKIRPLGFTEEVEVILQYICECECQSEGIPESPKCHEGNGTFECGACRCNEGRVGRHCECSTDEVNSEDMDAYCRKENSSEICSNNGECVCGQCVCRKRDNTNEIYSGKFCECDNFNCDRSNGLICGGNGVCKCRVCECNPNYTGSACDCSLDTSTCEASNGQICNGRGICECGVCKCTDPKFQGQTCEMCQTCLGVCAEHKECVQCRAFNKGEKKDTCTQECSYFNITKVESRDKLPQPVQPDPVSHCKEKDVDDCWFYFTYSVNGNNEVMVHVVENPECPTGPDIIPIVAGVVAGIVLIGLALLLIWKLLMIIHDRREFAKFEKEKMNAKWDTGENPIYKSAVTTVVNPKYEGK

Binder	binding result [1]	IC50, cell adhesion assay [2]	IC50, inhibition of ADP-induced platelet aggregation [2]	percentage of inhibition, cell adhesion assay [2]	IC50, cell adhesion assay [3]	percentage of inhibition, cell adhesion assay [3]	IC50, cell adhesion assay [4]	fold increase of binding affinity against SEQ ID NO:48 [5]	percentage of inhibition, ADP-induced platelet aggregation [2]	binding result [6]	binding result [7]	IC50, cell adhesion assay [8]	IC50, inhibition of ADP-induced platelet aggregation [8]	percentage of inhibition, cell adhesion assay [8]	IC50, cell adhesion assay [9]	IC50, cell adhesion assay [10]	percentage of inhibition, cell adhesion assay [10]
Wild type FNIII 10 (SEQ ID NO: 2, …) (ligand, also called FNIII 10 wild type; human fibronectin type III domain module 10) not shown	no binding (tested: >9180 nM)	> 9.18 µM	~45 µM	0%	> 4.59 µM	39%	4580 nM	–	–	–	–	–	–	–	–	–	–
FNIII 10 C-X7-C (SEQ ID NO: 6, VCPRGDMPDCSK) (designed binder) HHHHHHVSDVPRDLEVVAATPTSLLISWDAPAVTVRYYRITYGETGGNSPVQEFTVPGSKSTATISGLKPGVDYTITVYAVCPRGDMPDCSKPISINYRT	no binding (tested: >62124 nM)	> 62.1 µM	~62 µM	19%	> 73.2 µM	42%	93 nM	7 fold	–	–	–	–	–	–	–	–	–
FNIII 10 C-X7-C (SEQ ID NO: 10, VCARGDNPDCSK) (designed binder) HHHHHHVSDVPRDLEVVAATPTSLLISWDAPAVTVRYYRITYGETGGNSPVQEFTVPGSKSTATISGLKPGVDYTITVYAVCARGDNPDCSKPISINYRT	no binding (tested: >4546 nM)	> 4.55 µM	> 25.5 µM	0%	> 4.55 µM	0%	432 nM	–	2%	–	–	–	–	–	–	–	–
FNIII 10 variant (SEQ ID NO: 48, VTPRGDMPDSSK) (designed binder, also called FNIII 10 (PRGDMPD) protein; FNIII 10 PRGDMPD variant) HHHHHHVSDVPRDLEVVAATPTSLLISWDAPAVTVRYYRITYGETGGNSPVQEFTVPGSKSTATISGLKPGVDYTITVYAVTPRGDMPDSSKPISINYRT	no binding (tested: >9073 nM)	> 9.07 µM	> 22.2 µM	0%	> 6.8 µM	31.7%	645 nM	–	4%	–	–	–	–	–	–	–	–
FNIII 10 C-X7-C (SEQ ID NO: 8, VCPRGDWNECSK) (designed binder, Engineered intradomain disulfide bond Cys1491-Cys1499; exact N-terminus uncertain) HHHHHHVSDVPRDLEVVAATPTSLLISWDAPAVTVRYYRITYGETGGNSPVQEFTVPGSKSTATISGLKPGVDYTITVYAVCPRGDWNECSKPISINYRT	no binding (tested: >4494 nM)	> 4.49 µM	~10 µM	0%	> 4.49 µM	48%	418 nM	–	–	–	–	–	–	–	–	–	–
Wild type FNIII 9-10 (SEQ ID NO: 4) (ligand, exact N-terminus uncertain; also called Wild-type human FN III 9-10; Control) not shown	–	–	–	–	–	–	–	–	–	no binding (tested: >4798 nM)	no binding (tested: >3119 nM)	> 4.8 µM	~20 µM	0%	245 nM	> 3.12 µM	33.2%
Control FNIII 10 mutant (SEQ ID NO: 50, VTPRGDWNEGSK) (designed binder, exact N-terminus uncertain; also called FNIII 10 variant) HHHHHHVSDVPRDLEVVAATPTSLLISWDAPAVTVRYYRITYGETGGNSPVQEFTVPGSKSTATISGLKPGVDYTITVYAVTPRGDWNEGSKPISINYRT	no binding (tested: >9027 nM)	> 9.03 µM	> 6.45 µM	0%	> 4.51 µM	32.5%	908 nM	–	14%	–	–	–	–	–	–	–	–
